This note sets out measurements from US20250281536A1 (published 2025).

In the experiment the target is T1, Human CD4-Fc (human, UniProt P01730 26-390).
T1 construct: not shown: Fc
Briefly: BLI; human CD4-Fc captured; binder-mouse Fc homodimer at 125 nM. Background: BLI is a label-free optical method that tracks binding on a fibre tip over time.

B1: Binder 279 expressed as homodimer with mouse Fc (Fc fusion)
chain: QVQLVQSGAEVKKPGASVKVSCKASGGTFSSYAISWVRQAPGQGLEWMGWINPNSGGTNYAQKFQGRVTMTRDTSTSTVYMELSSLRSEDTAVYYCARDGYSGSYSDWGQGTLVTVSSGGGGSGGGGSGGGGSDIVMTQSPDSLAVSLGERATINCKSSQSVLSSSYNKNYLAWYQQKPGQPPKLLIYWASTRESGVPDRFSGSGSGTDFTLTISSLQAEDVAVYYCQQYYSTPWTFGQGTKVEIK
notes: not shown: mouse Fc
The Kd is the concentration at which binding is half-saturated. Low readings indicate a tighter complex, high ones a looser complex. The term koff denotes the first-order rate constant of dissociation. In general, kon refers to the second-order rate constant of association. Higher therefore signals fast association. B1: the affinity, expressed as Kd, was 5 nM; the koff turned out to be 0.00021 s⁻¹; the kon was found to be 41700 M⁻¹ s⁻¹.
